Source: article PMC6161613, “Lack of correlation between surface expression and currents in epileptogenic AB-calmodulin binding domain Kv7.2 potassium channel mutants” (Channels, 2018)

Target: T1, Recombinant rat brain calmodulin (rat, UniProt P0DP29 1-149)
T1 construct: calmodulin, rat, recombinant; also called CaM; source: E. coli BL21 DE3, purified
Test: pull-down; purified GST fusion proteins immobilised on GSH-Sepharose 4B beads; CaM (10 μg) added, 45 min, room temperature; 25 mM Hepes, 120 mM KCl, 5 mM NaCl, pH 7.5 with 5 mM EGTA (10 mM in the results text), no Ca2+; anti-CaM Western blot, band intensities quantified (n = 3)
Conditions: both partners purified

B1: GST-neurogranin (aa 1-78) (natural protein)
chain: MDCCTENACSKPDDDILDIPLDDPGANAAAAKIQASFRGHMARKKIKSGERGRKGPGPGGPGGAGVARGGAGGGPSGD
notes: neurogranin, aa 1-78, entry NP006167 as printed; also called Nrg; source: E. coli BL21 DE3, purified (GST fusion from pGEX-3X)
B1: binds.
